# Reference: US20170226203A1 (Daiichi Sankyo, published 2017)
# Positions count from the first letter of the chain named.
# B1: human anti-human Orai1 antibody 2C1.1 (antibody, human IgG2, lambda, V domains shown)
# VH: QVQLQQWGAGLLKPSETLSLTCAVYGGSFSGYYWSWIRQPPGKGLEWIGEIDHSGSTNYNPALKSRLTISVDTSKNQFSLKLSSVTAADTAVYYCARAGSGGYEDWFDPWGQGTLVTVSS
# VL: QSVLTQPPSVSGAPGQRVTISCTGSSSNIGAGYNVHWYQQFPRTDPKLLIYVYNIRPSGVPDRFSGSRSGTSASLAITGLQTEDEADYYCQSYDSSLSGVVFGGGTKLTVLG
# B2: human anti-human Orai1 antibody 5H3.1 (antibody, human IgG2, lambda, V domains shown)
# VH: QVQLVQSGAEVKKPGASVKVSCKASGYTFTDYYMNWVRQAPGQGLEWMGWINPNSGGTKYAQKFQGRVTMTRDTSIRTAYMELSRLRSDDTAVYYCAREYGGNSDWFDPWGQGTLVTVSS
# VL: QSVLTQPPSVSGAPGQRVTISCTGSSSNIGAGYDVHWYQQLPGTAPKLLIYGNSNRPSGVPDRFSGSKSGTSASLAITGLQAEDEADYYCQSYDNRLSDSVVIGGGTKLAVQG
# B3: mouse anti-human Orai1 antibody 10F8 (antibody, mouse IgG1, kappa, V domains shown)
# VH: QVQLQQSGAELVRPGSSVKISCKASGYAFRSYWMNWVKQRPGQGLEWIGHIYPGDGDTNYNGKFKGKATLTADKSSSTAYMQLSSLTSEDSAVYLCGRGGTTVVVDYWGQGTTLTVSS
# VL: DIVMSQSPSSLAVSAGEKVTMSCKSSQSLLNSRTRKNYLAWYQQKPGQSPKLLIYWASTRESGVPDRFTGSGSGTDFTLTISSVQAEDLAVYYCKQSYNLPWTFGGGTKLEIKR
# B4: mouse anti-human Orai1 antibody 14F74 (antibody, mouse IgG1, kappa, V domains shown)
# VH: QVQLQQSGAELVRPGSSVKISCKASGYAFSSYWMNWVKQRPGQGLEWIGHIYPGDGDTNYNGKFKGKATLTADKSSSTAYMQLSGLTSEDSAVYFCARSGRLRFAMDYWGQGTSVTVSS
# VL: DIVMSQSPSSLAVSAGEKVTMSCKSSQSLLNSRTRKNYLAWYQQKPGQSPKLLIYWASTRESGVPDRFTGSGSGTDFTLTISSVQAEDLAVYYCKQSYNLRTFGGGTKLEIQR
# B5: mouse anti-human Orai1 antibody 17F6 (antibody, mouse IgG1, kappa, V domains shown)
# VH: B4 VH with G56A, Q82H, G85S, A97S, S99Q, G100L, R101G, L102F, F104Y
# VL: B4 VL with Q112K
# B6: affinity maturation antibody hR198_HG1/LG1 (antibody, human IgG1, kappa)
# heavy: not shown
# light: DIQLTQSPSSLSASVGDRVTITCRASQSIGGSLSWFQQKPGKAPKRLIYSTSTLESGVPSRFSGSGSGTDYTLTISSLQPEDFAMYYCLQFAIFPDSFGQGTKVEIKRTVAAPSVFIFPPSDEQLKSGTASVVCLLNNFYPREAKVQWKVDNALQSGNSQESVTEQDSKDSTYSLSSTLTLSKADYEKHKVYACEVTHQGLSSPVTKSFNRGEC
# B7: hR198_HG1-LALA/LG1 (antibody, human IgG1, kappa, L234A L235A)
# heavy: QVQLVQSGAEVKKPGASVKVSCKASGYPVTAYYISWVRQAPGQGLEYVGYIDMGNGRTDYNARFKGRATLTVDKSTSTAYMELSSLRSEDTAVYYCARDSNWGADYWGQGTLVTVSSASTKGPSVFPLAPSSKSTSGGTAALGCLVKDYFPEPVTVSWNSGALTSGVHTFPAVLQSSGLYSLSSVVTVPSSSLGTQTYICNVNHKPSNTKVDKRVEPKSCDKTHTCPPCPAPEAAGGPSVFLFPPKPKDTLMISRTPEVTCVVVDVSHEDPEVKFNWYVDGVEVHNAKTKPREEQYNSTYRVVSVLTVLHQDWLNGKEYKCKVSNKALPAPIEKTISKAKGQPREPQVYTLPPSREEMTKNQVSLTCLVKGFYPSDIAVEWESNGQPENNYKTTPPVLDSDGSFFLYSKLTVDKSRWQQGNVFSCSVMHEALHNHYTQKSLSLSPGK
# light: B6 light
# B8: humanized anti-human Orai1 antibody hR198_H4/L4 (antibody, human IgG1, kappa, V domains shown)
# VH: QVQLVQSGAEVKKPGASVKVSCKASGYPVTAYYISWIRQAPGQGLEYVGYIDMGNGRTNYNARFKGRATLTVDKSTSTAYMELSSLRSEDTAVYYCARDSNWGVDYWGQGTLVTVSS
# VL: DIQLTQSPSSLSASVGDRVTITCRASQSIGNSLSWFQQKPGKAVKRLIYSTSTLESGVPSRFSGSGSGTDYTLTISSLQPEDFAMYYCLQFATFPDTFGQGTKVEIKR
# notes: Human IgG1 / kappa; also called hH4/L4
# B9: parent antibody Fab hR198_H4/L4-Fab (Fab, V domains shown)
# VH: B8 VH
# VL: DIQLTQSPSSLSASVGDRVTITCRASQSIGNSLSWFQQKPGKAVKRLIYSTSTLESGVPSRFSGSGSGTDYTLTISSLQPEDFAMYYCLQFATFPDTFGQGTKVEI
# notes: Fab of hR198_H4/L4
# Legend:
# human Orai1 [1] = biological target: T1, human Orai1 (human, UniProt Q96D31 1-301); assay: cell-based or functional assay
# T1 sequence (Q96D31 whole entry): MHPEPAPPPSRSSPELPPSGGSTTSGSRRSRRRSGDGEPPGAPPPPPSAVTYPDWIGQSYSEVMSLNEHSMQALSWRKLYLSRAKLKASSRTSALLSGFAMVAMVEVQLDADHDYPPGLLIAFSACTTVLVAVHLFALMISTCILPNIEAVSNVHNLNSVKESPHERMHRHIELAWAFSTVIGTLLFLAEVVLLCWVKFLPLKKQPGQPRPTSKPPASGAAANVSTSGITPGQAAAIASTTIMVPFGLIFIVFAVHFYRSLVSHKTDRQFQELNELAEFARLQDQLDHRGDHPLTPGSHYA
# human Orai1 [2] = biological target: T1, human Orai1; assay: flow cytometry, pcDNA3.1-hOrai1 transfected HEK293T cells
Binder,"IC50, IFN-γ release from human PBMC treated with PMA and A23187 (human Orai1 [1])","IC50, IL-2 release from Jurkat cells treated with PMA and A23187 (human Orai1 [1])","IC50, IL-2 release from human PBMC treated with PMA and A23187 (human Orai1 [1])","IC80, IFN-γ release from human PBMC treated with PMA and A23187 (human Orai1 [1])","IC80, IL-2 release from Jurkat cells treated with PMA and A23187 (human Orai1 [1])","IC80, IL-2 release from human PBMC treated with PMA and A23187 (human Orai1 [1])",binding result (human Orai1 [2])
B1,≥ 0.8 µg/mL,≥ 0.08 µg/mL,≥ 0.1 µg/mL,≥ 300 µg/mL,≥ 60 µg/mL,≥ 17 µg/mL,–
B2,≥ 0.8 µg/mL,≥ 0.08 µg/mL,≥ 0.1 µg/mL,≥ 300 µg/mL,≥ 60 µg/mL,≥ 17 µg/mL,–
B3,≥ 0.8 µg/mL,≥ 0.08 µg/mL,≥ 0.1 µg/mL,≥ 300 µg/mL,≥ 60 µg/mL,≥ 17 µg/mL,–
B4,≥ 0.8 µg/mL,≥ 0.08 µg/mL,≥ 0.1 µg/mL,≥ 300 µg/mL,≥ 60 µg/mL,≥ 17 µg/mL,–
B5,≥ 0.8 µg/mL,≥ 0.08 µg/mL,≥ 0.1 µg/mL,≥ 300 µg/mL,≥ 60 µg/mL,≥ 17 µg/mL,–
B6,≤ 0.04 µg/mL,≤ 0.01 µg/mL,≤ 0.02 µg/mL,≤ 2 µg/mL,≤ 0.2 µg/mL,≤ 0.4 µg/mL,–
B7,≤ 0.04 µg/mL,≤ 0.01 µg/mL,≤ 0.02 µg/mL,≤ 2 µg/mL,≤ 0.2 µg/mL,≤ 0.4 µg/mL,–
B8,–,–,–,–,–,–,binds
B9,–,–,–,–,–,–,binds
